According to PMC11839208 (2025):

Target: Concanavalin A (Canavalia ensiformis, UniProt P02866)
Test: spectral shift (thermal shift in results)

Chain of Concanavalin A (P02866 30-148, chain 1 of 2): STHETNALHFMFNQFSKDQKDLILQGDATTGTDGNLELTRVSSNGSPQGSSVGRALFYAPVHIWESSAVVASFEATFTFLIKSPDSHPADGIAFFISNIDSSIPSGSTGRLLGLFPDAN
Chain of Concanavalin A (P02866 164-281, chain 2 of 2): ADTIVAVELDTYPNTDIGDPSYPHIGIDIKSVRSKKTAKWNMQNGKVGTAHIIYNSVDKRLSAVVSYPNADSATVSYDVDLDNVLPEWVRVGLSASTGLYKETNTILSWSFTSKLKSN

B1: FimA (protein)
chain: AATTVNGGTVHFKGEVVNAACAVDAGSVDQTVQLGQVRTASLAQEGATSSAVGFNIQLNDCDTNVASKAAVAFLGTAIDAGHTNVLALQSSAAGSATNVGVQILDRTGAALTLDGATFSSETTLNNGTNTIPFQARYFATGAATPGAANADATFKVQYQ
B1 gave a Kd of about 40 µM.
